Laboratory results: patent publication US10087443B2, “Compositions and methods for modulating neuronal excitability and motor behavior” (ICAHN SCHOOL OF MEDICINE AT MOUNT SINAI, priority 2013, dated 2018)

How the values were obtained:
[1] = test system: Dravet-syndrome mice (Scn1a or Gabrg2 deficient mice); assay: Ectopic miR-128 overexpression in Dravet-syndrome mouse models (Scn1a or Gabrg2 deficient mice); assay type: in vivo; details: supplied into neurons of the hippocampus or thalamus; Dravet-like syndrome mice
From the text: The inventors of the instant disclosure ectopically overexpress miR-128 in mouse models of severe human generalized childhood epilepsy such as the Dravet-syndrome (Scn1a or Gabrg2 deficient mice) to establish the efficacy of miR-128 in averting seizures in these mice. Mice with a loss of Scna1 and Gabrg2 display spontaneous seizures and ataxia beginning in the fourth postnatal week followed by premature death from seizure-related cause. Applicants test the effects of miR-128 overexpression on seizure development and survival in three to four week old Dravet-syndrome mice. The ability of genetic miR-128 overexpression in postnatal forebrain neurons to protect mice against spontaneous seizure development is also tested. Secondly, Applicants test the seizure-suppressing ability of oligonucleotide or AAV-based miR-128 overexpression in different brain regions (striatum, temporal cortex, hippocampus, mediodorsal thalamus) to determine whether there are specific locations that can short-circuit brain-wide seizures due to local miR-128 overexpression. Ectopically supplied miR-128 into the neurons of the hippocam pus or thalamus protects mice suffering from Dravet-like syndrome against spontaneous recurrent seizures and premature death.

miR-128-2−/− mice = assay: Survival of miR-128-2-/- mice under anticonvulsant treatment (Kaplan-Meier survival curves); assay type: in vivo; details: sodium valproate 0.26% w/v in drinking water, oral, n=11
[2] = test system: primary striatal neuron cultures; assay: Gene expression (TaqMan qRT-PCR) in BDNF-treated primary striatal neuron cultures; assay type: cell-based, mouse; details: 0.05 ng/ul BDNF, day 10 in vitro; 0, 2, 6 and 24 hours
Procedure: Primary striatal neuron cultures obtained from E18 mouse brain were treated on day 10 in vitro with 0.05 ng/ul brain-derived neurotrophic factor (BDNF) in water. RNA from cultures was prepared at 0, 2, 6 and 24 hours after stimulation and gene expression change were analyzed using the Tagman qRT-PCR assay. […] Data are shown as mean, error bars represent s.e.m., p-value was determined by 2-way ANOVA, FosB treatment 0.0014, time <0.0001. 124a treatment 0.1091, time 0.0861, Arpp21 treatment 0.0064, time 0.0190. miR-128-2 treatment 0.0160, time 0.2097.
Relative expression levels of mature miRNAs and mRNAs were measured by TaqMan assays using total extracted RNA from brain samples, according to manufacturer's protocol (Life Technologies, Carlsbad, Calif.). Purified RNA samples were assayed by qRT-PCR for relative gene expression using pre-designed TaqMan gene expression assays from Applied Biosystems (ABI) as recommended by the manufacture. The following pre-designed TaqMan gene expression assays from Applied Biosystems (ABI) were used: miR-128 (Assay ID 002216), sno135 (Assay ID 001230), miR-124a (Assay ID 001182), Fosb Mm00500401_m1, Fosl2 Mm00484442_m1, Arc Mm00479619_g1, JunB Mm04243546_s1, Darpp-32 Mm00454892_m1, Btg2 Mm00476162_m1, Gadd45g Mm01352550_g1, Dusp1 Mm00457274_g1, Nr4a1 Mm01300401_m1, Jun Mm00495062_s1, Actb Mm00607939_s1, Arpp-21 Mm00473630_m1 (exon spanning probe detects exons that are common to all Arpp-21 isoforms), Arpp21 Mm00473645_m1 (exon spanning probe that specifically detects the long TARPP-isoform of Arpp-21). Cycle counts for miRNA quantification were normalized to snoRNA135 or miR-124a as indicated, and cycle counts for mRNA quantification were normalized to Actb or Gapdh. […] Calculation of standard deviation (SDΔCt=(SDtarget2+SDref2)1/2) and error bars (RQ1=2^(−(ΔΔCt+SDΔΔCt)), and RQ2=2^(−(ΔΔCt−SDΔΔCt))) was performed according to ABI technical literature Part Number 4371095 Rev B.

Q: Which “spontaneous recurrent seizures and premature death” value [1] does the source give for “miR-128: microRNA, UCACAGUGAACCGGUCUCUUU (SEQ ID NO: 1) (listed as RNA, chemistry not fully specified)” here?
A: Its value is “protects”.

Q: How did the “lethal impact of miR-128 deficiency (lifespan)” value (miR-128-2−/− mice) turn out when `CCCC(CCC)C(=O)O` [valproic acid] was run?
A: Its value is “prevented”.

B1: BDNF: brain-derived neurotrophic factor, inducer of miR-128 expression (protein, UniProt P23560 19-247, looked up)
Neurotrophic factor BDNF …: APMKEANIRGQGGLAYPGVRTHGTLESVNGPKAGSRGLTSLADTFEHVIEELLDEDQKVRPNEENNKDADLYTSRVMLSSQVPLEPPLLFLLEEYKNYLDAANMSMRVRRHSDPARRGELSVCDSISEWVTAADKKTAVDMSGGTVTVLEKVPVSKGQLKQYFYETKCNPMGYTKEGCRGIDKRHWNSQCRTTQSYVRALTMDSKKRIGWRFIRIDTSCVCTLTIKRGR
Q: How did the “expression of immediate early gene FosB” value [2] turn out when B1 was run?
A: Its value is “strong but transient inducer”.

Q: And the “expression of miR-128” value [2]?
A: Its value is “stable increase”.

Q: And the “expression of miR-128 host gene Arpp21” value [2]?
A: The value was “stable increase”.

Q: And the “expression of neuron-specific miRNA miR-124a” value [2]?
A: Its value is “no effect”.
